The data set has as its target T1, CasEnd-17 (synthetic construct).
T1 chain: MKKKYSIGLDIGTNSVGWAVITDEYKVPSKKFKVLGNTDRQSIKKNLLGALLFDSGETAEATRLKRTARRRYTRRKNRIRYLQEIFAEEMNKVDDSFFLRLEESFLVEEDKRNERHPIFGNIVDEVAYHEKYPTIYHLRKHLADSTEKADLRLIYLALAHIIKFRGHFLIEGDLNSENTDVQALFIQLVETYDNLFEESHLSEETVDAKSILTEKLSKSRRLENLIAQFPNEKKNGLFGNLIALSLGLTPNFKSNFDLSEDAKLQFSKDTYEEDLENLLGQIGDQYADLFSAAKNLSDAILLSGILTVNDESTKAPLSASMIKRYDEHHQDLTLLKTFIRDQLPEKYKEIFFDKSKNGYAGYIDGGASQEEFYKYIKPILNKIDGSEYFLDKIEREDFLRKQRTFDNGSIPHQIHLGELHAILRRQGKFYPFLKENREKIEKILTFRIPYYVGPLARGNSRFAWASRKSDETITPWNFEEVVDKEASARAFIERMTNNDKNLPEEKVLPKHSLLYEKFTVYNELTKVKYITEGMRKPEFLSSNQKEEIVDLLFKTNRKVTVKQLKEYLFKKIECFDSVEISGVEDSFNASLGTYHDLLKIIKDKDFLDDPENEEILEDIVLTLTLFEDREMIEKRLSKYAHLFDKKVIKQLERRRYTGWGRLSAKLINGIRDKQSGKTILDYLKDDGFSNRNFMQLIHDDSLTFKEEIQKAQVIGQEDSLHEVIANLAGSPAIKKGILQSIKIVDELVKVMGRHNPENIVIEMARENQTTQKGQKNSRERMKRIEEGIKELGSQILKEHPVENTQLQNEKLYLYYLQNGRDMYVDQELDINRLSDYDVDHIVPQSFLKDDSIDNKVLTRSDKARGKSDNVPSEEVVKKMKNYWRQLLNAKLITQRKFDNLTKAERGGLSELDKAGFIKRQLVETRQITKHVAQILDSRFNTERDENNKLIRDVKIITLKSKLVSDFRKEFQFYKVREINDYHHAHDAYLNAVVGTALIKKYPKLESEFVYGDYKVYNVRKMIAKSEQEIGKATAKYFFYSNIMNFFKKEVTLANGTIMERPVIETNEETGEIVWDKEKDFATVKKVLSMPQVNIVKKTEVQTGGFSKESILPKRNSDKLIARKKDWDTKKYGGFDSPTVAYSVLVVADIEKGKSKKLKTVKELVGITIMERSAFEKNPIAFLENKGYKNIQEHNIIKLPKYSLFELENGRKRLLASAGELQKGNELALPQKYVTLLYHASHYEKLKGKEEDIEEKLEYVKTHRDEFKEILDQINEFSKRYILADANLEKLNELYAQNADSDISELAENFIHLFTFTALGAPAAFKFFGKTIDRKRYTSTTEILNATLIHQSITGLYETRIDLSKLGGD
Nature of the data set: cell_activity; +++; HEK293T; PAM not stated. An outline of the steps: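 Editing activity was scored as the fraction of GFP+ cells on day 4 by flow cytometry. BFP-expressing HEK293T cells (250,000) received by nucleofection 200 ng plasmid for the RT-Cas fusion protein and 200 ng template RNA plasmid designed to convert BFP to GFP.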

B1: BFP-to-GFP template RNA ; BFP reporter protospacer (ssRNA ; dsDNA)
RNA: GCCGAAGCACUGCACGCCGUGUUUUAGAGCUAGAAAUAGCAAGUUAAAAUAAGGCUAGUCCGUUAUCAACUUGAAAAAGUGGCACCGAGUCGGUGCACCCUGACGUACGGCGUGCAGUGCUU
DNA 1: GCCGAAGCACTGCACGCCGT
DNA 2: ACGGCGTGCAGTGCTTCGGC
Regarding B1, the activity is ≥ 100 % of reference.
